Values belong to the molecule of their own block, whether it stands above or below them.
Columns and labels:
[1] = target: T1, native PRLR expressing T47D cells (Homo sapiens, UniProt P16471); assay: FACS cell surface binding
T1 construct: a native PRLR expressing cell line (T47D); endogenous in cells; host or cells: T47D
T1 sequence (P16471 25-622): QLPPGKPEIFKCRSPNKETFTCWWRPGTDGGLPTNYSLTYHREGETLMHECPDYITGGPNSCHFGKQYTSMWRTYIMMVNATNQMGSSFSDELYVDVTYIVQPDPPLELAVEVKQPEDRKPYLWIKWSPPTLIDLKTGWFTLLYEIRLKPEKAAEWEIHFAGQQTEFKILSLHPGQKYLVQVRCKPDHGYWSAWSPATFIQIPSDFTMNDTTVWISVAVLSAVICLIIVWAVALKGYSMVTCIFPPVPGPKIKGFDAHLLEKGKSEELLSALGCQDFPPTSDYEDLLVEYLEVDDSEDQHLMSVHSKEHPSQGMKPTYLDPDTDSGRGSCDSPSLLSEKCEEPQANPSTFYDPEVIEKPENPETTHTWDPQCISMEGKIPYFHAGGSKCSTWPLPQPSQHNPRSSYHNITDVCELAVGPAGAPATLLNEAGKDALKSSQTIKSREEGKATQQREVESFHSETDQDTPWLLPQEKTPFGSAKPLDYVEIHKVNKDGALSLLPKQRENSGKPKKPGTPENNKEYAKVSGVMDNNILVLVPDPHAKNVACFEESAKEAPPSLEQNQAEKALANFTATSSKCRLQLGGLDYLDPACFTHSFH
Experimental: (§1) Cell surface expression of PRLR on 293/hPRLR cells was assessed via FACS analysis. Briefly, 1×10^5 cells were incubated with 10 μg/ml of Control antibody I, or an isotype control for 30 min on ice in antibody dilution buffer. Following two washes with antibody dilution buffer, cells were incubated with 10 μg/ml of PE conjugated anti-human secondary antibodies for 30 min on ice. Following two additional washes, samples were run on a Hypercyt® cytometer and analyzed in ForeCyt™ (IntelliCyt, Albuquerque, N. Mex.). The mean fluorescence intensities (MFI) were expressed as fold change above isotype control levels (background). FACS binding confirmed that Control I selectively bound to 293/hPRLR expressing cells with MFIs that were 30 fold above background (isotype ctrl) levels and less than 2 fold binding on parental cells.
(§2) Next, the anti-PRLR antibodies were tested via FACS for selective binding to the engineered overexpressing PRLR HEK293 cell lines, as well as to non-expressing HEK293 cells and a native PRLR expressing cell line (T47D).

HEK293 parental cells = assay: FACS cell surface binding; design: species or system human
Experimental: (§3) The ability of anti-PRLR antibodies to selectively bind PRLR expressing cell lines was next determined. Human, monkey Macaca fascicularis, and mouse PRLR constructs with an HA tag were stably introduced into HEK293 cells via Lipofectamine 2000-mediated transfection methodology. Transfectants (HEK293/hPRLR, HEK293/mfPRLR and HEK293/mPRLR) were selected for at least 2 weeks in complete growth media plus G418.
as §1, §2

[2] = target: T2, monomeric human PRLR (hPRLR.mmh; SEQ ID NO:401) (Homo sapiens, UniProt P16471); assay: Surface plasmon resonance (Biacore T200), antibody-capture format; format: binding; details: analyte hPRLR.mmh
T2 construct: soluble monomeric (hPRLR.mmh); mmh (myc-myc-hexahistidine) (C)
Experimental: (§4) Antibodies, expressed as human IgG1 Fc (i.e., “H1H” designations), were captured onto an anti-human Fc sensor surface (mAb-capture format), and soluble monomeric (hPRLR.mmh; SEQ ID NO:401, or Macaca fascicularis (mf) PRLR.mmh; SEQ ID NO:403) or dimeric (hPRLR.mFc; SEQ ID NO:402) PRLR protein was injected over the sensor surface. Measurements were conducted on a T200 Biacore instrument. Kinetic association (ka) and dissociation (kd) rate constants were determined by processing and fitting the data to a 1:1 binding model using Scrubber 2.0 curve fitting software.

[3] = tested on: Macaca fascicularis PRLR (mfPRLR.mmh; SEQ ID NO:403); assay: as above; format: binding; details: analyte mfPRLR.mmh
Experimental: as §4

[4] = target: T3, dimeric human PRLR (hPRLR.mFc; SEQ ID NO:402) (Homo sapiens, UniProt P16471); assay: as above; format: binding; details: analyte hPRLR.mFc
T3 construct: dimeric (hPRLR.mFc)
Experimental: as §4

[5] = target: T4, human PRLR on HEK293/hPRLR cells (Homo sapiens, UniProt P16471); assay: FACS cell surface binding
T4 construct: HA; expressed in transfected cells; host or cells: HEK293
T4 sequence (P16471 25-622): T1 sequence (P16471 25-622)
Experimental: as §3, §1, §2

[6] = target: T5, monkey PRLR on HEK293/mfPRLR cells (Macaca fascicularis, UniProt A0A2K5WXK1); assay: FACS cell surface binding
T5 construct: HA; expressed in transfected cells; host or cells: HEK293
T5 sequence (A0A2K5WXK1 25-619): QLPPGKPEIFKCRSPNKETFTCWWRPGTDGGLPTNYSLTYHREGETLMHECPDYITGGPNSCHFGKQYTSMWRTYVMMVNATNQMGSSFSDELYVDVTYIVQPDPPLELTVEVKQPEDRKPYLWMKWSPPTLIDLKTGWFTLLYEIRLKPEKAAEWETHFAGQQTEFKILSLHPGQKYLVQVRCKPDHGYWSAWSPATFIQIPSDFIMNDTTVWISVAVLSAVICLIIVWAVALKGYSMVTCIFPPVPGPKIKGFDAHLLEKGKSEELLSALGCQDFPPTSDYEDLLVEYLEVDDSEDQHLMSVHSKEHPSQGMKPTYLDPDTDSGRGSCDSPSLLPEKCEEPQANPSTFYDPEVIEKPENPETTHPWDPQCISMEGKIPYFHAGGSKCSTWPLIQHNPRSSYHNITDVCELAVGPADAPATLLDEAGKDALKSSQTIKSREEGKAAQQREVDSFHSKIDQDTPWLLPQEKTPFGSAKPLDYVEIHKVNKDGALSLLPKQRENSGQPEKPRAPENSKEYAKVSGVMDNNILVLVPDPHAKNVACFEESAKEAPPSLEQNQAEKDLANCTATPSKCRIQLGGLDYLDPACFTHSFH
Experimental: as §3, §1, §2

[7] = target: T6, mouse PRLR on HEK293/mPRLR cells (Mus musculus, UniProt Q08501); assay: FACS cell surface binding
T6 construct: HA; expressed in transfected cells; host or cells: HEK293
T6 sequence (Q08501 20-608): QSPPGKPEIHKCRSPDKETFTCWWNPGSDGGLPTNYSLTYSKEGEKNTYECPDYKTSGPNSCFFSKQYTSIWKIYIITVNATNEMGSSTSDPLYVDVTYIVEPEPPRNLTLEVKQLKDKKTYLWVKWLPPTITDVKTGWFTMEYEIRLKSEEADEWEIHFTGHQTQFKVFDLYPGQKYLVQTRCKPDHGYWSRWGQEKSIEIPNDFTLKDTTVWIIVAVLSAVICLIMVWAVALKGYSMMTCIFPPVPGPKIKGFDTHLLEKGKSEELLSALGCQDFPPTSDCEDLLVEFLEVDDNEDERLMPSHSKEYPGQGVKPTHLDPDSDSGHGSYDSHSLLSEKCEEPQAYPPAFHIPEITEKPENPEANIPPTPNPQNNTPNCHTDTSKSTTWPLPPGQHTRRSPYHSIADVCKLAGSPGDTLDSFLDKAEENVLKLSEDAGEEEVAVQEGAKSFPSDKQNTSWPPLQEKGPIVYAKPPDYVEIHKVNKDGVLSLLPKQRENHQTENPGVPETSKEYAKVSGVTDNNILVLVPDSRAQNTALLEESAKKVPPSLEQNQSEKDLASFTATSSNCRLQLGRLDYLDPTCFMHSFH
Experimental: as §3, §1, §2

T3 sequence (P16471 with tags, fused parts or gaps): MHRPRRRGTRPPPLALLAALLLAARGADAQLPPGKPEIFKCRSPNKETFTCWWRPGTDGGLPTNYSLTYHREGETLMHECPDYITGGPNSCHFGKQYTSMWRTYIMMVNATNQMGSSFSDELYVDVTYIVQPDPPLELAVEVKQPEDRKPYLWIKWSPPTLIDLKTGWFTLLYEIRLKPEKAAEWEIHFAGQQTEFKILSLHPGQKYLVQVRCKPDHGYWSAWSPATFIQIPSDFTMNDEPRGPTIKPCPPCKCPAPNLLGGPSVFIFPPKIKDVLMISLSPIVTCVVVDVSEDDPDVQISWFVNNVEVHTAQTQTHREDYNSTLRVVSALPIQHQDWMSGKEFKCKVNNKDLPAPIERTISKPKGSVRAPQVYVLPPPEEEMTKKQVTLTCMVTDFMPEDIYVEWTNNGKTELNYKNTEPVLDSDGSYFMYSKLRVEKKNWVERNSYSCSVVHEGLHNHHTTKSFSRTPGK
Sequence of Macaca fascicularis PRLR (mfPRLR.mmh; SEQ ID NO:403) (as listed by the source): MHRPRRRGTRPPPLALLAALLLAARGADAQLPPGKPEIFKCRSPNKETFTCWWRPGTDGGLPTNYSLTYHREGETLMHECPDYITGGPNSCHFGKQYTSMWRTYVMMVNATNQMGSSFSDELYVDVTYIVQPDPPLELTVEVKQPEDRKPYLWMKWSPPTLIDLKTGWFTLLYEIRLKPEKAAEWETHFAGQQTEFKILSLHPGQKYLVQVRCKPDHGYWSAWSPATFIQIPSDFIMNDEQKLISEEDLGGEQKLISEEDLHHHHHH
T2 sequence (P16471 with tags, fused parts or gaps): as the sequence (as listed by the source) above, with V105I, T139A, M154I, T187I, I236T counted along it

- FACS Cell Binding [1]: 43 Fold Above Background
- ka ([2]; 25° C.): 235000 M/s
- kd ([2]; 25° C.): 0.000332 s⁻¹
- ka ([2]; 37° C.): 339000 M/s
- kd ([2]; 37° C.): 0.00102 s⁻¹
- kd ([3]; 25° C.): 0.000393 s⁻¹
- kd ([3]; 37° C.): 0.00107 s⁻¹
- ka ([4]; 25° C.): 229000 M/s
- kd ([4]; 25° C.): 7.57e-05 s⁻¹
- ka ([4]; 37° C.): 410000 M/s
- kd ([4]; 37° C.): 0.000142 s⁻¹
- FACS Cell Binding [5]: 2 Fold Above Background
- FACS Cell Binding [6]: 32 Fold Above Background
- FACS Cell Binding [7]: 2 Fold Above Background
B1: H1H6793P: fully human anti-PRLR antibody, human IgG1 Fc; HCVR/LCVR SEQ ID NOs 146/154 (antibody, V domains shown)
VH: EVQLVESGGGLVQPGGSLRLSCAASGFSFSIYAMSWFRQAPGKGLEWVSAINGRGDGTHYADSVKGRFTISRDNSKTTLYLQMSSLRAEDTAVYYCAKPVMSTNGFDIWGQGTMVTVSS
VL: DIQMTQSPSTLSASVGDRVTITCRASQSISSWLAWYQLKPGKAPKLLIYKASNLESGVPSRFSGSGSGTEFTLTISSLQPDDFATYYCQQYNIYWTFGQGTKVEIK
- FACS Cell Binding (HEK293 parental cells): 2 Fold Above Background
- ka ([3]; 25° C.): 177000 M/s
- ka ([3]; 37° C.): 233000 M/s

- FACS Cell Binding [1]: 41 Fold Above Background
- ka ([2]; 25° C.): 421000 M/s
- kd ([2]; 25° C.): 0.000409 s⁻¹
- ka ([2]; 37° C.): 808000 M/s
- kd ([2]; 37° C.): 0.00119 s⁻¹
- kd ([3]; 25° C.): 0.00038 s⁻¹
- kd ([3]; 37° C.): 0.00109 s⁻¹
- ka ([4]; 25° C.): 473000 M/s
- kd ([4]; 25° C.): 8.69e-05 s⁻¹
- ka ([4]; 37° C.): 644000 M/s
- kd ([4]; 37° C.): 0.000147 s⁻¹
- FACS Cell Binding [5]: 35 Fold Above Background
- FACS Cell Binding [6]: 29 Fold Above Background
- FACS Cell Binding [7]: 1 Fold Above Background
B3: H1H6800P: fully human anti-PRLR antibody, human IgG1 Fc; HCVR/LCVR SEQ ID NOs 194/202 (antibody, V domains shown)
VH: EVQLVESGGGLVQPGRSLRLSCAASGFTFDGYAMHWVRQGPGKGLEWVSGISWYSDTLGYADSVKGRFTISRDNAKNSLYLQMNSLRTEDTAFYYCAKISSSGWAFDYWGQGTLVTVSS
VL: EIVLTQSPGTLSLSPGERATLSCRASHSVSSAYLAWYQQKPGQTPRLLIYGTSSRATGIPDRFSGSGSGTDFTLTISRLEPEDFAVYYCQQYGSSPLFTFGPGTKVDIK
- FACS Cell Binding (HEK293 parental cells): 1 Fold Above Background
- ka ([3]; 25° C.): 303000 M/s
- ka ([3]; 37° C.): 439000 M/s

Second part, the molecule before the results:

B2: H1H6790P: fully human anti-PRLR antibody, human IgG1 Fc; HCVR/LCVR SEQ ID NOs 114/122 (antibody, V domains shown)
VH: EVQLVESGGGLVQPGGSLRLSCAASGFTFSSYAMTWVRQAPGKGLEWVSAITGSVGNTYYADSVKGRFTISRDNSKNTLYLQMNSLGAEDTAEYYCAKGAGMTTNWYLDLWGRGTLVTVSS
VL: DIVMTQSPDSLAVSLGARATINCKSSQSVLYSSNNQNYLTWYQQKPGQPPKLLIKWASTRESGVPDRFSGSGSGTDFTLTISSLQAEDVAVYYCQQYASSPYTFGQGTKLEIK
- FACS Cell Binding [1]: 34 Fold Above Background
- FACS Cell Binding (HEK293 parental cells): 1 Fold Above Background
- ka ([2]; 25° C.): 565000 M/s
- kd ([2]; 25° C.): 0.000799 s⁻¹
- ka ([2]; 37° C.): 940000 M/s
- kd ([2]; 37° C.): 0.00329 s⁻¹
- ka ([3]; 25° C.): 389000 M/s
- kd ([3]; 25° C.): 0.000793 s⁻¹
- ka ([3]; 37° C.): 615000 M/s
- kd ([3]; 37° C.): 0.00321 s⁻¹
- ka ([4]; 25° C.): 542000 M/s
- kd ([4]; 25° C.): 0.000104 s⁻¹
- ka ([4]; 37° C.): 646000 M/s
- kd ([4]; 37° C.): 0.000198 s⁻¹
- FACS Cell Binding [5]: 37 Fold Above Background
- FACS Cell Binding [6]: 24 Fold Above Background
- FACS Cell Binding [7]: 1 Fold Above Background

B4: H1H6792P: fully human anti-PRLR antibody, human IgG1 Fc; HCVR/LCVR SEQ ID NOs 130/138 (antibody, V domains shown)
VH: EVQLVESGGGLVQPGRSLRLSCAASGFTLDDHAVHWVRQAPGKGLEWVSGISWNSVYIDYADSVKGRFTIFRDNAKNSLYLQMNSLRAEDTAFYYCARDIEGARDYWGQGTLVTVSS
VL: DIQMTQSPSSLSASVGDRVTITCRASQGIRNDLGWYQQKPGKAPKRLIYAASSLQSGVPSRFSGSGYGTEFTLTISSLQPEDFAPYYCLQHNSYPLTFGGGTKVEIK
- FACS Cell Binding [1]: 37 Fold Above Background
- FACS Cell Binding (HEK293 parental cells): 1 Fold Above Background
- ka ([2]; 25° C.): 324000 M/s
- kd ([2]; 25° C.): 0.000794 s⁻¹
- ka ([2]; 37° C.): 435000 M/s
- kd ([2]; 37° C.): 0.00229 s⁻¹
- ka ([3]; 25° C.): 236000 M/s
- kd ([3]; 25° C.): 0.000983 s⁻¹
- ka ([3]; 37° C.): 305000 M/s
- kd ([3]; 37° C.): 0.00286 s⁻¹
- ka ([4]; 25° C.): 303000 M/s
- kd ([4]; 25° C.): 9.48e-05 s⁻¹
- ka ([4]; 37° C.): 499000 M/s
- kd ([4]; 37° C.): 0.000176 s⁻¹
- FACS Cell Binding [5]: 37 Fold Above Background
- FACS Cell Binding [6]: 28 Fold Above Background
- FACS Cell Binding [7]: 3 Fold Above Background

— patent US10925971B2, “Methods of treating PRLR positive breast cancer” (Regeneron Pharmaceuticals, Inc., priority 2016, dated 2021)
